In patent publication US20250235548A1 (Zymeworks, published 2025):
Where two headings read alike, the source gives them in different places. Each block holds one binder with its values, some of them ahead of it.

Tests used:
[1] = molecular target: T1, human sodium-dependent phosphate transporter 2B (NaPi2b) (human, UniProt O95436 1-690); experiment: cell-based or functional assay
T1 sequence: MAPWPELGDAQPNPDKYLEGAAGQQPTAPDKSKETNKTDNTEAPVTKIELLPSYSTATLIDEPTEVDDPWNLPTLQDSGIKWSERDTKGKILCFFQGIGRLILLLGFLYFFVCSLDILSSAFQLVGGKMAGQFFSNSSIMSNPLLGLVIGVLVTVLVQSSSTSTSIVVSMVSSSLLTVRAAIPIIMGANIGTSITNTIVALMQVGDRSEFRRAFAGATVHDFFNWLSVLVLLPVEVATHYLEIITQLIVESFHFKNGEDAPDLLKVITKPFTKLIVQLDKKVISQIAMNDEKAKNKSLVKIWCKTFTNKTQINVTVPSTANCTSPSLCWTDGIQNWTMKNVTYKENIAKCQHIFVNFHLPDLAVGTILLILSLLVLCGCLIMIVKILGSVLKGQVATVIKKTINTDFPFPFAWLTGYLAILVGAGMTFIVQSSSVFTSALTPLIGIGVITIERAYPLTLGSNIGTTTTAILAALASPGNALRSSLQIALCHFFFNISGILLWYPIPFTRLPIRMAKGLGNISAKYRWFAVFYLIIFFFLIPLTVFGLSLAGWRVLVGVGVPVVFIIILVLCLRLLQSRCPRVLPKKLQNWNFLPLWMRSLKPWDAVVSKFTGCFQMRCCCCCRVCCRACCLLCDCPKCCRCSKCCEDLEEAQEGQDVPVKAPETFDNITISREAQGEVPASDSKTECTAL

[2] = molecular target: T1, human sodium-dependent phosphate …; experiment: cell-based or functional assay; remark: listed apart in the source
[3] = molecular target: T1, human sodium-dependent phosphate …; experiment: cell-based or functional assay; remark: listed apart in the source
[4] = molecular target: T1, human sodium-dependent phosphate …; experiment: cell-based or functional assay; remark: listed apart in the source
[5] = molecular target: T1, human sodium-dependent phosphate …; experiment: cell-based or functional assay; remark: listed apart in the source
[6] = molecular target: T2, KLH (Sigma-Aldrich, H8283); experiment: NS-ELISA, plate coated with KLH, mAb at 100 nM; ratio of signal to a buffer well
T2 construct: Coating protein of the non-specific ELISA (NS-ELISA)
Method: NS-ELISA was used to measure the propensity of the antibodies to bind to a range of biomolecules to emulate the undesirable non-specific interactions to biological matrices in vivo as described below.
NS-ELISA was carried out in Corning@ 96-well EIA/RIA Easy Wash™ Clear Flat Bottom Polystyrene High Bind Microplate coated overnight at 4° C. with 50 μL of Heparin (Sigma, H3149) diluted with 50 mM sodium carbonate pH 9.6 to a final concentration of 250 μg/mL. The plate was incubated for 2 days at room temperature, wells that were coated with heparin were not covered to allow air dry. […] 50 μL each of insulin, KLH, dsDNA and ssDNA were added to a 96 well plate, followed by the incubation at 37° C. for 2 h. The coating materials were removed, and the plate was blocked with 200 μL of Gibco™ PBS pH7.4, 0.1% Tween®20, and incubated for 1 h at room temperature with shaking at 200 rpm. The plate was washed 3 times with Gibco™ PBS pH7.4, 0.1% Tween 20. 50 μL of each mAb at 100 nM (15 mg/mL) in Gibco™ PBS pH 7.4, 0.1% Tween®20 was added in duplicate to the wells and incubated for 1 h at room temperature with shaking at 200 rpm. […] Plates were incubated for 1 h at room temperature, with shaking at 200 rpm. The plate was washed three times with Gibco™ PBS pH7.4, 0.1% Tween 20, and 100 μL of TMB substrate (Cell Signaling Technology©, 7004P6) added to each well. […] Binding scores were calculated as the ratio of the ELISA signal of the antibody to the signal of a well containing buffer instead of the primary antibody. The cutoffs considered for each binding molecule (ssDNA. KLH, Insulin, dsDNA and Heparin) were internally calculated, based on the average of Zymeworks Inc. produced antibodies and antibodies benchmarks published in the literature.

[7] = molecular target: T3, human sodium-dependent phosphate transporter 2B (NaPi2b) (human, UniProt O95436 1-690); experiment: cell-based or functional assay; remark: listed apart in the source
T3 sequence: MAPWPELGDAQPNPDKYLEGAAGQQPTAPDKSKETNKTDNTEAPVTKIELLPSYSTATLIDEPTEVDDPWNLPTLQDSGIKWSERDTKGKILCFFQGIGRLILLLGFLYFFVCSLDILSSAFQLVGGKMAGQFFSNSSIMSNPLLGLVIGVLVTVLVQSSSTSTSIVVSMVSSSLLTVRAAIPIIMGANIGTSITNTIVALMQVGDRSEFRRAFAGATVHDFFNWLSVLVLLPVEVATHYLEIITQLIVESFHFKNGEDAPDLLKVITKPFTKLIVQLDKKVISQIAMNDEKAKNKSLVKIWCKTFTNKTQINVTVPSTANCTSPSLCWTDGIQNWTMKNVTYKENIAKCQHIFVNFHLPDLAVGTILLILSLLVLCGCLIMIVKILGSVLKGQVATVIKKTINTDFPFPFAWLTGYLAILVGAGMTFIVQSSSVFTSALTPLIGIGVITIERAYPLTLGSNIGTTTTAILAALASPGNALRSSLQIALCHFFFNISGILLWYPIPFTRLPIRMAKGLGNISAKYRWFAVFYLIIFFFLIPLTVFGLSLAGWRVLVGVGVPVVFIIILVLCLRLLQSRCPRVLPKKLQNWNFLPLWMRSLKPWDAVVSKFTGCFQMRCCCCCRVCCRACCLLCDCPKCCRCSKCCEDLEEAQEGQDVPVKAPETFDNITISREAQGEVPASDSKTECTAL

cynomolgus monkey NaPi2b = molecular target: T4, cynomolgus monkey NaPi2b (cynomolgus monkey, UniProt O95436 1-690 (human entry)); experiment: flow cytometry, HEK293-6e cells transfected with cynomolgus NaPi2b
T4 construct: also called Cyno NaPi2b; Cy NaPi2b
T4 chain: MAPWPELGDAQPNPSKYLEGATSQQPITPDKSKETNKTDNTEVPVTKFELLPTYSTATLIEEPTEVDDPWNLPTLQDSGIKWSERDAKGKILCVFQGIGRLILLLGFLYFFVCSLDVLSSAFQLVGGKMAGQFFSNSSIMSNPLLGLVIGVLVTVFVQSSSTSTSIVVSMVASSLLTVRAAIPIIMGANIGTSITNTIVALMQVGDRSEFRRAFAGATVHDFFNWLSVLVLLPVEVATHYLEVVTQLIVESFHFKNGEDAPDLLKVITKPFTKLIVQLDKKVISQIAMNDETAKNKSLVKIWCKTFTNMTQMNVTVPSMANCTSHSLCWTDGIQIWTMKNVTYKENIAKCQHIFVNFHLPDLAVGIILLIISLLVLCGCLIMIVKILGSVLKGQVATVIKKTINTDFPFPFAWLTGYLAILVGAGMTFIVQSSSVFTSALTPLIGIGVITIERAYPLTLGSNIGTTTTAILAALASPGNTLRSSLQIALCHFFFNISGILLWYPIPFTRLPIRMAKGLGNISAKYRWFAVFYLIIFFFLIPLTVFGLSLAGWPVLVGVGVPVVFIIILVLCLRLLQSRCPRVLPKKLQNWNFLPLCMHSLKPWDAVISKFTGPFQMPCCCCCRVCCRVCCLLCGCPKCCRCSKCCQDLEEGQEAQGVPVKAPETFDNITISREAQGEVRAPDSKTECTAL

NS-ELISA binding score [6]: 1.34
B4: v29452 humanized anti-NaPi2b antibody (antibody, human IgG1, kappa, V domains shown)
VH: QVQLVQSGAEVKKPGASVKVSCKASGFTFTSYNVHWVRQAPGQGLEWMGAISPGNGDLSYAQKFQGRVTMTRDTSTSTVYMELSSLRSEDTAVYYCARGRTGMGAVDYWGQGTLVTVSS
VL: DVQMTQSPSSLSASVGDRVTITCRASQDVYSYLNWYQQKPGKAVKLLIYYTSRLQSGVPSRFSGSGSGTDYTLTISSLQPEDIATYYCQQYNIFPWTFGQGTKLEIKR
notes: Full-size IgG1/kappa; also called H1L3

Internalized Fluorescence Fold-Over Palivizumab, HCC-78, 5 hrs, 10 nM [7]: 25.3 fold
Internalized Fluorescence Fold-Over Palivizumab, HCC-78, 24 hrs, 10 nM [7]: 59.9 fold
Internalized Fluorescence Fold-Over Palivizumab, NCI-H441, 5 hrs, 10 nM [7]: 2.4 fold
Internalized Fluorescence Fold-Over Palivizumab, NCI-H441, 24 hrs, 10 nM [7]: 4 fold
NS-ELISA binding score [6]: 1.37
fold lower apparent Kd than v18992 (MX35) (cynomolgus monkey NaPi2b): 10 fold
fold lower apparent Kd than v18993 (lifastuzumab) (cynomolgus monkey NaPi2b): 2 fold
B5: v29456 humanized anti-NaPi2b antibody (antibody, human IgG1, kappa)
heavy: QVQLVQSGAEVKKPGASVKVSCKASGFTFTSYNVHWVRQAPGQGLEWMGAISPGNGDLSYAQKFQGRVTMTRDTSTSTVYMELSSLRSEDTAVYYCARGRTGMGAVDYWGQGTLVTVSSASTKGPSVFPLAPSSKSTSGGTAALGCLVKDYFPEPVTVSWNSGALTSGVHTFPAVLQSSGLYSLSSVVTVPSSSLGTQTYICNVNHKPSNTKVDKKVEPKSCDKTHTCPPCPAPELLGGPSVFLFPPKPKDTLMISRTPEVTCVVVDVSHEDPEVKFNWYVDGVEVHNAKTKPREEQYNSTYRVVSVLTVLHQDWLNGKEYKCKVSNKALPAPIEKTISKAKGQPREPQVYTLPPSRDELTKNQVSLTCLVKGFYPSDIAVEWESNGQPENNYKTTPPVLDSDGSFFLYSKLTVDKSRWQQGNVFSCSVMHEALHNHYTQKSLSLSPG
light: DVQMTQSPSSLSASVGDRVTITCRASQDVYSYLNWYQQKPGKAVKLLIYYTSRLQSGVPSRFSGSGSGTDYTLTISSLQPEDFATYYCQQYNIFPWTFGQGTKLEIKRTVAAPSVFIFPPSDEQLKSGTASVVCLLNNFYPREAKVQWKVDNALQSGNSQESVTEQDSKDSTYSLSSTLTLSKADYEKHKVYACEVTHQGLSSPVTKSFNRGEC
notes: Full-size IgG1/kappa; also called H1L2

NS-ELISA binding score [6]: 2.38
B6: v23855, parental mouse-human chimeric anti-NaPi2b antibody (antibody, human IgG1, kappa, V domains shown)
VH: QAYLQQSGAELVRPGASVKMSCKASGFTFTSYNVHWVKQTPRQGLEWIAAISPGNGDLSYNQRFKDKATLTVDRSSSTAYMQLSGLTSEDSAVYFCARGRTGMGAVDYWGQGTSVTVSS
VL: DVQMTQTASSLSASLGDRVTISCRASQDVYSYLNWYQQKPHGTVKLLIYYTSRLQSGVPSRFTGSGSGTDYSLTISNLEPEDIATYYCQQYNIFPWTFGGGTKLEIKR
notes: Full-size antibody; also called parental chimeric

The remaining lines, values behind:

B1: v29456-MT-GGFG-AM-Compound 141 DAR 8 (antibody, human IgG1, kappa)
heavy: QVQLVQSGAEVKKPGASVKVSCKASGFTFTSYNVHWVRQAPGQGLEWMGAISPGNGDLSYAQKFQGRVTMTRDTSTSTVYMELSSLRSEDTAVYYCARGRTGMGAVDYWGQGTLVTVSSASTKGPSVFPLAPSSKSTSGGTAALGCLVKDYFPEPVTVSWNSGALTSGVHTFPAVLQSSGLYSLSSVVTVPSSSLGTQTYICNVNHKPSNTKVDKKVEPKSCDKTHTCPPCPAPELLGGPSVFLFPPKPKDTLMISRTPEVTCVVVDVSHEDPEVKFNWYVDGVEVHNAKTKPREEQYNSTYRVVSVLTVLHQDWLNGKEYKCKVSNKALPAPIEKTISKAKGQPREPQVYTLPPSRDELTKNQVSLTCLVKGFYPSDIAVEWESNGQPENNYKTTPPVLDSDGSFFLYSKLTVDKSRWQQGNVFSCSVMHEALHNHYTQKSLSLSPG
light: DVQMTQSPSSLSASVGDRVTITCRASQDVYSYLNWYQQKPGKAVKLLIYYTSRLQSGVPSRFSGSGSGTDYTLTISSLQPEDFATYYCQQYNIFPWTFGQGTKLEIKRTVAAPSVFIFPPSDEQLKSGTASVVCLLNNFYPREAKVQWKVDNALQSGNSQESVTEQDSKDSTYSLSSTLTLSKADYEKHKVYACEVTHQGLSSPVTKSFNRGEC
modifications: MT-GGFG-AM-Compound 141 drug-linker on reduced cysteines (maleimide); DAR 8 for the whole antibody
EC50 of cytotoxicity, 2D monolayer, HCC-78 cells, 4 days, CellTiter-Glo [1]: 260 pM
EC50 of cytotoxicity, 2D monolayer, IGROV-1 cells, 4 days, CellTiter-Glo [1]: 1560 pM
EC50 of cytotoxicity, HCC-78 3D spheroids, 6 days, CellTiter-Glo 3D [2]: 330 pM
EC50 of cytotoxicity, IGROV-1 3D spheroids, 6 days, CellTiter-Glo 3D [2]: 210 pM

B2: v29456-MC-GGFG-Compound 141 DAR 8 (antibody, human IgG1, kappa)
heavy: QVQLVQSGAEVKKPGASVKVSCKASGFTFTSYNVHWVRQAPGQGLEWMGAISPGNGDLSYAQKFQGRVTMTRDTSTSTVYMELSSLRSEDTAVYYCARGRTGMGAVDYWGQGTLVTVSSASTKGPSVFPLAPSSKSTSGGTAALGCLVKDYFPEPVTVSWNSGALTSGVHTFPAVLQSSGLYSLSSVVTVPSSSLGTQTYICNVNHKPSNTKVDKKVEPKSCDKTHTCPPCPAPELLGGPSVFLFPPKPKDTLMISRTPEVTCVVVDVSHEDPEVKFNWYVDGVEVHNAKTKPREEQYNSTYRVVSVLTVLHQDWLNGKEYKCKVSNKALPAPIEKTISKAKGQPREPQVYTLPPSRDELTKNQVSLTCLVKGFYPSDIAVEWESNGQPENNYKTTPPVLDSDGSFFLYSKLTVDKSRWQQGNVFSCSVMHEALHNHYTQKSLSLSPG
light: DVQMTQSPSSLSASVGDRVTITCRASQDVYSYLNWYQQKPGKAVKLLIYYTSRLQSGVPSRFSGSGSGTDYTLTISSLQPEDFATYYCQQYNIFPWTFGQGTKLEIKRTVAAPSVFIFPPSDEQLKSGTASVVCLLNNFYPREAKVQWKVDNALQSGNSQESVTEQDSKDSTYSLSSTLTLSKADYEKHKVYACEVTHQGLSSPVTKSFNRGEC
modifications: MC-GGFG-Compound 141 drug-linker on reduced cysteines (maleimide); DAR 8 for the whole antibody
EC50 of cytotoxicity, IGROV-1 3D spheroids [3]: 440 pM
EC50 of cytotoxicity, TOV-21G:HDFa (1:1) 3D spheroids [3]: 900 pM
EC50 of cytotoxicity, 2D monolayer, IGROV-1 cells [4]: 3010 pM
EC50 of cytotoxicity, 2D monolayer, TOV-21G cells [4]: 930 pM

B3: v29456-MC-GGFG-AM-Compound 139 DAR 8 (antibody, human IgG1, kappa)
heavy: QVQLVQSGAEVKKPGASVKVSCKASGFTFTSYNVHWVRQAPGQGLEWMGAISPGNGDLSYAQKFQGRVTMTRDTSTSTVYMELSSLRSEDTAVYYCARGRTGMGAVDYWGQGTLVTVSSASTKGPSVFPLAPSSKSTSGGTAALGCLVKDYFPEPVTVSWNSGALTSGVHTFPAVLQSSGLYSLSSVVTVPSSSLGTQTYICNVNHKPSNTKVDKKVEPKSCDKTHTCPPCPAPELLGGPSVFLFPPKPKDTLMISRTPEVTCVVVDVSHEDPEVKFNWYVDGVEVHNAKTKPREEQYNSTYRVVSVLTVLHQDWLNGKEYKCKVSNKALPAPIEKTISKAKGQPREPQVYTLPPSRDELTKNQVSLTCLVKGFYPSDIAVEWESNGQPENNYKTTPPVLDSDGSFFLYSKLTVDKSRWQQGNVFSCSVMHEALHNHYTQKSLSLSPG
light: DVQMTQSPSSLSASVGDRVTITCRASQDVYSYLNWYQQKPGKAVKLLIYYTSRLQSGVPSRFSGSGSGTDYTLTISSLQPEDFATYYCQQYNIFPWTFGQGTKLEIKRTVAAPSVFIFPPSDEQLKSGTASVVCLLNNFYPREAKVQWKVDNALQSGNSQESVTEQDSKDSTYSLSSTLTLSKADYEKHKVYACEVTHQGLSSPVTKSFNRGEC
modifications: MC-GGFG-AM-Compound 139 drug-linker on reduced cysteines (maleimide); DAR 8 for the whole antibody
EC50 of cytotoxicity, H441 3D spheroids [5]: 1570 pM
EC50 of cytotoxicity, IGROV-1 3D spheroids [5]: 550 pM
EC50 of cytotoxicity, TOV-21G 3D spheroids [5]: 540 pM
EC50 of cytotoxicity, IGROV-1 3D spheroids [3]: 310 pM
EC50 of cytotoxicity, TOV-21G:HDFa (1:1) 3D spheroids [3]: 240 pM
EC50 of cytotoxicity, 2D monolayer, IGROV-1 cells [4]: 390 pM
EC50 of cytotoxicity, 2D monolayer, TOV-21G cells [4]: 4300 pM
